From patent US20140087995A1 (published 2014)
Numbered stars: 1 amine (or outer) side, 2 acyl side, 3 side chain; on linkers, the order of the positions; unused ones are H or OH. Bridge positions count the residues as written; N and C are the ends. Side chains are listed from the residue outwards. Ends that are not written are not given here. * marks the point of attachment. C20 diacid = O=C(O)CCCCCCCCCCCCCCCCCCC(=O)*; γGlu = O=C(O)[C@H](CCC(=O)[*:2])N[*:1]

B1: N^ε1-[(4S)-4-carboxy-4-[[(4S)-4-carboxy-4-(19-carboxynonadecanoylamino)butanoyl]amino]butanoyl]-[Glu14,Arg17,Pro21,Pro27,Pro34,Arg35]-h-amylin (peptide)
peptide: K([γGlu-γGlu-C20 diacid])CNTATCATQRLAEFLRHSSPNFGAIPSSTNVGPRTY-NH2
modifications: disulfide 2-7; N-terminus assumed
SMILES: CC[C@H](C)[C@H](NC(=O)[C@H](C)NC(=O)CNC(=O)[C@H](Cc1ccccc1)NC(=O)[C@H](CC(N)=O)NC(=O)[C@@H]1CCCN1C(=O)[C@H](CO)NC(=O)[C@H](CO)NC(=O)[C@H](Cc1c[nH]cn1)NC(=O)[C@H](CCCNC(=N)N)NC(=O)[C@H](CC(C)C)NC(=O)[C@H](Cc1ccccc1)NC(=O)[C@H](CCC(=O)O)NC(=O)[C@H](C)NC(=O)[C@H](CC(C)C)NC(=O)[C@H](CCCNC(=N)N)NC(=O)[C@H](CCC(N)=O)NC(=O)[C@@H](NC(=O)[C@H](C)NC(=O)[C@@H]1CSSC[C@H](NC(=O)[C@@H](N)CCCCNC(=O)CC[C@H](NC(=O)CC[C@H](NC(=O)CCCCCCCCCCCCCCCCCCC(=O)O)C(=O)O)C(=O)O)C(=O)N[C@@H](CC(N)=O)C(=O)N[C@@H]([C@@H](C)O)C(=O)N[C@@H](C)C(=O)N[C@@H]([C@@H](C)O)C(=O)N1)[C@@H](C)O)C(=O)N1CCC[C@H]1C(=O)N[C@@H](CO)C(=O)N[C@@H](CO)C(=O)N[C@H](C(=O)N[C@@H](CC(N)=O)C(=O)N[C@H](C(=O)NCC(=O)N1CCC[C@H]1C(=O)N[C@@H](CCCNC(=N)N)C(=O)N[C@H](C(=O)N[C@@H](Cc1ccc(O)cc1)C(N)=O)[C@@H](C)O)C(C)C)[C@@H](C)O
notes: also called compound 110
B2: N^ε1-[(4S)-4-carboxy-4-[[(4S)-4-carboxy-4-(19-carboxynonadecanoylamino)butanoyl]amino]butanoyl]-[His14,Arg17,Pro21,Pro27]-h-amylin (peptide)
peptide: K([γGlu-γGlu-C20 diacid])CNTATCATQRLAHFLRHSSPNFGAIPSSTNVGSNTY-NH2
modifications: disulfide 2-7; N-terminus assumed
SMILES: CC[C@H](C)[C@H](NC(=O)[C@H](C)NC(=O)CNC(=O)[C@H](Cc1ccccc1)NC(=O)[C@H](CC(N)=O)NC(=O)[C@@H]1CCCN1C(=O)[C@H](CO)NC(=O)[C@H](CO)NC(=O)[C@H](Cc1c[nH]cn1)NC(=O)[C@H](CCCNC(=N)N)NC(=O)[C@H](CC(C)C)NC(=O)[C@H](Cc1ccccc1)NC(=O)[C@H](Cc1c[nH]cn1)NC(=O)[C@H](C)NC(=O)[C@H](CC(C)C)NC(=O)[C@H](CCCNC(=N)N)NC(=O)[C@H](CCC(N)=O)NC(=O)[C@@H](NC(=O)[C@H](C)NC(=O)[C@@H]1CSSC[C@H](NC(=O)[C@@H](N)CCCCNC(=O)CC[C@H](NC(=O)CC[C@H](NC(=O)CCCCCCCCCCCCCCCCCCC(=O)O)C(=O)O)C(=O)O)C(=O)N[C@@H](CC(N)=O)C(=O)N[C@@H]([C@@H](C)O)C(=O)N[C@@H](C)C(=O)N[C@@H]([C@@H](C)O)C(=O)N1)[C@@H](C)O)C(=O)N1CCC[C@H]1C(=O)N[C@@H](CO)C(=O)N[C@@H](CO)C(=O)N[C@H](C(=O)N[C@@H](CC(N)=O)C(=O)N[C@H](C(=O)NCC(=O)N[C@@H](CO)C(=O)N[C@@H](CC(N)=O)C(=O)N[C@H](C(=O)N[C@@H](Cc1ccc(O)cc1)C(N)=O)[C@@H](C)O)C(C)C)[C@@H](C)O
notes: also called compound 92
B3: N^ε1-[(4S)-4-carboxy-4-[[(4S)-4-carboxy-4-(19-carboxynonadecanoylamino)butanoyl]amino]butanoyl]-[Ser14,Arg17,Pro21,Pro27,Pro34,Glu35]-h-amylin (peptide)
peptide: K([γGlu-γGlu-C20 diacid])CNTATCATQRLASFLRHSSPNFGAIPSSTNVGPETY-NH2
modifications: disulfide 2-7; N-terminus assumed
SMILES: CC[C@H](C)[C@H](NC(=O)[C@H](C)NC(=O)CNC(=O)[C@H](Cc1ccccc1)NC(=O)[C@H](CC(N)=O)NC(=O)[C@@H]1CCCN1C(=O)[C@H](CO)NC(=O)[C@H](CO)NC(=O)[C@H](Cc1c[nH]cn1)NC(=O)[C@H](CCCNC(=N)N)NC(=O)[C@H](CC(C)C)NC(=O)[C@H](Cc1ccccc1)NC(=O)[C@H](CO)NC(=O)[C@H](C)NC(=O)[C@H](CC(C)C)NC(=O)[C@H](CCCNC(=N)N)NC(=O)[C@H](CCC(N)=O)NC(=O)[C@@H](NC(=O)[C@H](C)NC(=O)[C@@H]1CSSC[C@H](NC(=O)[C@@H](N)CCCCNC(=O)CC[C@H](NC(=O)CC[C@H](NC(=O)CCCCCCCCCCCCCCCCCCC(=O)O)C(=O)O)C(=O)O)C(=O)N[C@@H](CC(N)=O)C(=O)N[C@@H]([C@@H](C)O)C(=O)N[C@@H](C)C(=O)N[C@@H]([C@@H](C)O)C(=O)N1)[C@@H](C)O)C(=O)N1CCC[C@H]1C(=O)N[C@@H](CO)C(=O)N[C@@H](CO)C(=O)N[C@H](C(=O)N[C@@H](CC(N)=O)C(=O)N[C@H](C(=O)NCC(=O)N1CCC[C@H]1C(=O)N[C@@H](CCC(=O)O)C(=O)N[C@H](C(=O)N[C@@H](Cc1ccc(O)cc1)C(N)=O)[C@@H](C)O)C(C)C)[C@@H](C)O
notes: also called compound 120
B4: N^-1-[(4S)-4-carboxy-4-(19-carboxynonadecanoylamino)butanoyl]-Gly[Arg1,His14,Arg17,Pro21,Pro27,His34]-h-amylin (peptide)
peptide: {C20 diacid-γGlu}-GRCNTATCATQRLAHFLRHSSPNFGAIPSSTNVGHNTY-NH2
modifications: disulfide 3-8
SMILES: CC[C@H](C)[C@H](NC(=O)[C@H](C)NC(=O)CNC(=O)[C@H](Cc1ccccc1)NC(=O)[C@H](CC(N)=O)NC(=O)[C@@H]1CCCN1C(=O)[C@H](CO)NC(=O)[C@H](CO)NC(=O)[C@H](Cc1c[nH]cn1)NC(=O)[C@H](CCCNC(=N)N)NC(=O)[C@H](CC(C)C)NC(=O)[C@H](Cc1ccccc1)NC(=O)[C@H](Cc1c[nH]cn1)NC(=O)[C@H](C)NC(=O)[C@H](CC(C)C)NC(=O)[C@H](CCCNC(=N)N)NC(=O)[C@H](CCC(N)=O)NC(=O)[C@@H](NC(=O)[C@H](C)NC(=O)[C@@H]1CSSC[C@H](NC(=O)[C@H](CCCNC(=N)N)NC(=O)CNC(=O)CC[C@H](NC(=O)CCCCCCCCCCCCCCCCCCC(=O)O)C(=O)O)C(=O)N[C@@H](CC(N)=O)C(=O)N[C@@H]([C@@H](C)O)C(=O)N[C@@H](C)C(=O)N[C@@H]([C@@H](C)O)C(=O)N1)[C@@H](C)O)C(=O)N1CCC[C@H]1C(=O)N[C@@H](CO)C(=O)N[C@@H](CO)C(=O)N[C@H](C(=O)N[C@@H](CC(N)=O)C(=O)N[C@H](C(=O)NCC(=O)N[C@@H](Cc1c[nH]cn1)C(=O)N[C@@H](CC(N)=O)C(=O)N[C@H](C(=O)N[C@@H](Cc1ccc(O)cc1)C(N)=O)[C@@H](C)O)C(C)C)[C@@H](C)O
notes: also called compound 100
B5: N^-1-[(4S)-4-carboxy-4-(19-carboxynonadecanoylamino)butanoyl]-Gly[Arg1,Ala14,Arg17,Pro21,Pro27,His34]-h-amylin (peptide)
peptide: {C20 diacid-γGlu}-GRCNTATCATQRLAAFLRHSSPNFGAIPSSTNVGHNTY-NH2
modifications: disulfide 3-8
SMILES: CC[C@H](C)[C@H](NC(=O)[C@H](C)NC(=O)CNC(=O)[C@H](Cc1ccccc1)NC(=O)[C@H](CC(N)=O)NC(=O)[C@@H]1CCCN1C(=O)[C@H](CO)NC(=O)[C@H](CO)NC(=O)[C@H](Cc1c[nH]cn1)NC(=O)[C@H](CCCNC(=N)N)NC(=O)[C@H](CC(C)C)NC(=O)[C@H](Cc1ccccc1)NC(=O)[C@H](C)NC(=O)[C@H](C)NC(=O)[C@H](CC(C)C)NC(=O)[C@H](CCCNC(=N)N)NC(=O)[C@H](CCC(N)=O)NC(=O)[C@@H](NC(=O)[C@H](C)NC(=O)[C@@H]1CSSC[C@H](NC(=O)[C@H](CCCNC(=N)N)NC(=O)CNC(=O)CC[C@H](NC(=O)CCCCCCCCCCCCCCCCCCC(=O)O)C(=O)O)C(=O)N[C@@H](CC(N)=O)C(=O)N[C@@H]([C@@H](C)O)C(=O)N[C@@H](C)C(=O)N[C@@H]([C@@H](C)O)C(=O)N1)[C@@H](C)O)C(=O)N1CCC[C@H]1C(=O)N[C@@H](CO)C(=O)N[C@@H](CO)C(=O)N[C@H](C(=O)N[C@@H](CC(N)=O)C(=O)N[C@H](C(=O)NCC(=O)N[C@@H](Cc1c[nH]cn1)C(=O)N[C@@H](CC(N)=O)C(=O)N[C@H](C(=O)N[C@@H](Cc1ccc(O)cc1)C(N)=O)[C@@H](C)O)C(C)C)[C@@H](C)O

Target: T1, human amylin receptor (amylin 3(a) receptor: human calcitonin receptor with RAMP-3) (human, UniProt P30988 25-474; O60896 24-148)
T1 construct: whole, on cells; Assay used cell membranes of the Amylin 3(a)/CRE-luc BHK cells, not intact cells; also called hAmylin-R; hAmylinR
T1 sequence (looked up) 1: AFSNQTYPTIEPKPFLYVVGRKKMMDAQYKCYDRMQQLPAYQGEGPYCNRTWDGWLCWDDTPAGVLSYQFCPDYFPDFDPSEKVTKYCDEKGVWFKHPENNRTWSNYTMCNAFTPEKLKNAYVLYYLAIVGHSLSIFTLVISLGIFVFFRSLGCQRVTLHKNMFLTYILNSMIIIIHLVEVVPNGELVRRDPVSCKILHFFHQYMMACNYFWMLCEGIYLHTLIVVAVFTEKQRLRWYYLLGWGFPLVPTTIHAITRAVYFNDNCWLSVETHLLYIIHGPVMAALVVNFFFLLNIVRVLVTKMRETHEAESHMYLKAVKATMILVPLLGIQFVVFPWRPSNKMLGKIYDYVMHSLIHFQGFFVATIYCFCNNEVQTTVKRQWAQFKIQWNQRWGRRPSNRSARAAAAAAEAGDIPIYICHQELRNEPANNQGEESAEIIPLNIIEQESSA
T1 sequence (looked up) 2: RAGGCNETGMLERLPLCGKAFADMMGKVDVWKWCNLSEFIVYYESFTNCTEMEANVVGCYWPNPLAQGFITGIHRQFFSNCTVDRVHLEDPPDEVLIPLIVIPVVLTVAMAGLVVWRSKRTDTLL
Test: SPA competition with 125I-rat amylin on membranes of BHK cells with human calcitonin receptor and RAMP-3 (Assay V)
Method in brief: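 Membranes from BHK Amylin 3(a)/CRE-luc cells (35 ng/μL final) were mixed with SPA beads and test compounds in 50 mM Hepes pH 7.4 with 1 mM CaCl2, 5 mM MgCl₂, 0.1% OA and 0.02% Tween20. Incubation ran 120 min at 25° C with shaking; IC₅₀ came from one-site competition fitting.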

Binder | IC50 [nM]
B1 | 0.326
K([γGlu-γGlu-C20 diacid])CNTATCATQRLAEFLRHSSPNFGAIPSSTNVGPHTY-NH2 (disulfide 2-7 (inferred)) | 0.377
K([γGlu-γGlu-C20 diacid])CNTATCATQRLAEFLRHSSPNFGAILSSTPVGPETY-NH2 (disulfide 2-7 (inferred)) | 0.069
B2 | 0.179
B3 | 0.076
B4 | 1.01
{C20 diacid-γGlu}-GRCNTATCATQRLAAFLRHSSPNFGAIPSSTNVGPNTY-NH2 (disulfide 3-8) | 0.114
B5 | 0.426

Target: T2, human calcitonin receptor (human, UniProt P30988 25-474)
T2 construct: whole, on cells; Assay used cell membranes, not intact cells; also called hCTR; hCT
T2 sequence (looked up): T1 sequence (looked up) 1
Test: ratio IC50 hCTR / IC50 hAmylin-R (reference: human amylin receptor), SPA competition assays
Method in brief: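 Scintillation proximity competition binding on cell membranes at 35 ng/μL with SPA beads, in 50 mM Hepes pH 7.4, 1 mM CaCl2, 5 mM MgCl₂, 0.1% OA, 0.02% Tween20. Incubated 120 min at 25° C with shaking. IC₅₀ from one-site competition fit.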

Binder | Ratio hCT/hAmylin binding
B1 | 53.6
K([γGlu-γGlu-C20 diacid])CNTATCATQRLAEFLRHSSPNFGAIPSSTNVGPHTY-NH2 (disulfide 2-7 (inferred)) | 27.3
K([γGlu-γGlu-C20 diacid])CNTATCATQRLAEFLRHSSPNFGAILSSTPVGPETY-NH2 (disulfide 2-7 (inferred)) | 22.6
B2 | 145
B3 | 45.3
B4 | 65.3
{C20 diacid-γGlu}-GRCNTATCATQRLAAFLRHSSPNFGAIPSSTNVGPNTY-NH2 (disulfide 3-8) | 26.5
B5 | 68.6

Target: T2, human calcitonin receptor
Test: SPA competition with 125I-calcitonin on membranes of BHK cells with human calcitonin receptor (Assay VII)
Method in brief: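 BHK hCTR membranes 35 ng/μL + SPA beads 0.05 mg/well; buffer 50 mM Hepes pH 7.4, 1 mM CaCl2, 5 mM MgCl₂, 0.1% OA, 0.02% Tween20. 120 min, 25° C., shaking. Scintillation count; IC50 by one-site binding competition.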

Binder | IC50 [nM]
B1 | 17.5
K([γGlu-γGlu-C20 diacid])CNTATCATQRLAEFLRHSSPNFGAIPSSTNVGPHTY-NH2 (disulfide 2-7 (inferred)) | 10.3
K([γGlu-γGlu-C20 diacid])CNTATCATQRLAEFLRHSSPNFGAILSSTPVGPETY-NH2 (disulfide 2-7 (inferred)) | 1.56
B2 | 26
B3 | 3.44
B4 | 66.3
{C20 diacid-γGlu}-GRCNTATCATQRLAAFLRHSSPNFGAIPSSTNVGPNTY-NH2 (disulfide 3-8) | 3
B5 | 29.2
